Tests used:
[1] = target: NbPI4KII-mGFP (Nicotiana benthamiana)
[2] = target: Capsicum annuum phosphatidylinositol 4-kinase type II (CaPI4KII), yeast two-hybrid fusion (Capsicum annuum)
[3] = target: NbPI4KII-mGFP (Nicotiana benthamiana); assay: FRET or BRET; FRET in agroinfiltrated N. benthamiana leaf epidermal cells, 3 dpi; mGFP donor, DsRed acceptor; Olympus FluoView FV1000
[4] = target: NbPI4KII-mGFP (Nicotiana benthamiana); remark: listed apart in the source

| Substance | percentage of cells in which NbPI4KII-mGFP was redirected into the nucleus when co-expressed with Rep181-361-DsRed (N = 17) [1] | percentage of cells with CaPI4KII-mGFP restricted to the nucleus when co-expressed with Rep181-361-DsRed [2] | FRET efficiency [3] | percentage of cells with NbPI4KII-mGFP only inside the nucleus when co-expressed with Rep-DsRed (N. benthamiana epidermis, N = 19) [4] | percentage of cells with NbPI4KII-mGFP exclusively inside the nucleus when co-expressed with Rep1-180-DsRed (N = 16) [1] | percentage of cells with CaPI4KII-mGFP restricted to the nucleus when co-expressed with Rep1-180-DsRed [2] |
| --- | --- | --- | --- | --- | --- | --- |
| ChiLCV Rep181-361-DsRed (domain or fragment) | 78% | 41% | 76% |  |  |  |
| ChiLCV Rep1-120-DsRed (domain or fragment) |  |  | 72% |  |  |  |
| ChiLCV Rep-DsRed (natural protein) |  |  | 47% | 63% |  |  |
| ChiLCV Rep1-180-DsRed (domain or fragment) |  |  | 43% |  | 87% | 61% |

Source: PMC6792133
